The results in this text go back to article PMC3589475, “Large-Scale Functional Purification of Recombinant HIV-1 Capsid” (PLoS ONE, 2013).

The assay deals with cross-linked CA 4Mu hexamer (HIV-1 (NL4-3 strain)). Description: SPR; Biacore T100; minimally biotinylated WT CA or CA 4Mu hexamer captured on neutravidin on CM5 chips, CAI injected (100 µM and 3-fold dilutions); 50 mM sodium phosphate pH 7.5, 150 mM NaCl, 0.01% P20; steady-state one-site fit. In general terms: In SPR one partner is held on a chip, and binding of the other changes the refractive index at the surface.

Broadly, the Kd is a measure of binding affinity in units of concentration. Higher therefore signals a looser complex. Molecule ITFEDLLDYYGP [CAI peptide] came in with a Kd of over 100 µM.
